Consider 21 molecules from US20240218057A1 (ROCKEFELLER UNIVERSITY, published 2024).

The target of the test is T1, SARS-COV-2 RBD (SARS-COV-2, UniProt P0DTC2 319-539).
T1 construct: also called WT RBD
Description: ELISA, RBD coated.

Substitutions are numbered along the chain they refer to.

B1: C994 (antibody, V domains shown)
VH: QVQLQESGPGLVKPSGTLSLTCAVSGVSISNTNWWNWVRQPPGKGLEWIGEIYHTGSARYNPSLRSRVTISVDKSKNQFSLRLNSATAADTAIYYCARAQTPEFGELLYWGQGALVTVSS
VL: DIQMTQSPSSLSASVGDRVTITCRASQSITDHLNWYQQKPGKAPKLLIYAASSLQTGVPSRFSGSGSETDFTLTISTLQPEDFATYYCQQSYGPPTYSFGQGTKLEIK
notes: IgG; V domains only
Molecule B1 returned a half-maximal effective concentration (EC50) of 2.09 ng/mL.

B2: C976 (antibody, V domains shown)
VH: EVQLVESGGALIQPGGSLRLSCAASGFTVSSNDMTWVRQAPGKGLEWVSVIYTGGGTYHADSAKGRFIISRHNSKNTLSLQMNDLRAEDTAVYYCARLTMTTYYFDSWGQGTLVTVSS
VL: SYELTQPPSVSLAPGQTARITCGGNGIGSKSVHWYQQKPGRAPVLVVYDDSVRPSGTPARFSGANSGNTATLTISRVEAGDEADYYCQVWDSFRDHQDWVFGGGTKLTVL
notes: IgG; V domains only
B2 registered an EC50 of 2.52 ng/mL.

B3: C992 (antibody, V domains shown)
VH: QVQLQESGPGLVKPSQTLSLTCTVSGGSISNGGYFWTWIRQHPVKGLEWIGYIYYSGSPHYNPSLKSRLSISLDTFKNQFSLNLSSVTAADTAVYYCARGDTFGRGYYFDFWGQGTLVTVSS
VL: SYELTQPPSVSVAPGQTARITCGGNNIGTNSMHWYQQKPGQAPVLVVFDDSDRPSGIPERFSGSNSGNTATLTISRVEAGDEADYHCQVWDRSSDRPWVFGGGTKLTVL
notes: IgG; V domains only
Molecule B3 gave an EC50 of 3.24 ng/mL.

B4: C996 (antibody, V domains shown)
VH: EVQLVESGGGLVQPGGSLRLSCVASGFTSTNYDMHWVRQAPGRGLQWVSSIGTAGDTYYPGSVRGRFTISRENAKNSLDLQMNSLRVGDTAVYYCARGQRGYYDRSGYYWGWRAFDIWGQGTMVTVSS
VL: SYELTQPPSVSVAPGQTARITCGGNNIGNKSVYWYQQKPGQAPVLVVYDDSGRPSGIPERFSGSNSANTATLTISRVEAGDEADYYCQVWDNNSDQFGGGTKLTVL
notes: IgG; V domains only
With B4, the EC50 turned out to be 3.07 ng/mL.

B5: C993 (antibody, V domains shown)
VH: EVQLLESGGGLVQPGGSLRLSCAASGFPFSIYAMSWVRQAPGKGLEWVSGMRGTTGTTYYADSVKGRFAISRDNSKNMLHLQMNSLRAEDTAVYYCAKSDHGDYVIGAFDIWGQGTMVTVSS
VL: QSALTQPPSASGSPGQSVTISCTGTSGDVGGYNYVSWYQQHPGKAPKLMIYEVSKRPSGVPDRFSGSKSGNTASLTVSGLQAEDEADYYCNSYAGSNNWVFGGGTKLTVL
notes: IgG; V domains only
In the case of B5, the response was half-maximal at 2.29 ng/mL (EC50).

B6: C995 (antibody, V domains shown)
VH: EVQLVESGGGLIQPGRSLRLSCTASGFSVGDYAMSWFRQAPGKGLEWVGFLRNQHYGGTAEYAASVKGRFSISTDASKNIVYLQMDSLKTEDTAVYYCARNDRYIVIVPAEMLYWGQGTLVTVSS
VL: EIVMTQSPATLSVSPGERATLSCRATESVYSNLAWYQQKPGQAPRLLMYDASTRAPGIPARFSGSGSGTEFTLTISSLQSEDFATYYCQQYSNWPPITFGQGTRLEIK
notes: IgG; V domains only
B6 gave a concentration giving a half-maximal response (EC50) of 3.79 ng/mL.

B7: C978 (antibody, V domains shown)
VH: QVQLVQSGAEVKKPGSSVKVSCKASGATFSNYIISWVRQAPGQGLEWMGRTIPLLDIANYAQKFQGRVTITADKSTRIVYMHLGSLTSEDTAVYYCATGKGYSSSSAAYYFDHWGQGTLVTVSS
VL: QSVLTQPPSVSGAPGQRVTISCTGTNSNIGAGYDIHWYQQLPGTAPKLLIYGSNNRPSGVPDRFSGSKSGTSASLAITGLQAEDEADYYCQSYDSSLSGSEVFGGGTKLTVL
notes: IgG; V domains only
In turn, B7 registered an EC50 of 2.09 ng/mL.

B8: C966 (antibody, V domains shown)
VH: EVQLVESGGGLIQPGGSLRLSCAASGFTFSSYDMHWVRQVTGKGLEWVSAIGTAGDRYYLDSVKGRFTISRENAKNSLHLQMNNLRVGDTAVYYCARASGVLTTHFDSWGRGTLVTVSS
VL: DIQMTQSPSSLSASVGDRVTITCRASQSIGRHLSWHQQKLGKAPKLLIYSASSLQSGVPSRFSGSGSGTDFTLTISSLQPEDFATYYCQQSYETPPWTFGQGTKVEIK
notes: IgG; V domains only
B8 displayed an EC50 of 1.97 ng/mL.

B9: C972 (antibody, V domains shown)
VH: EVQLVESGGGLVQPGGSLRLSCAASEFIVSRNYMSWVRQAPGKGLEWVSLIYPGGSTYYPDSVKGRFTISRDNSKNTLYLQMNSLRGEDTAVYYCARDLGDSRLDYWGQGALVTVSS
VL: DIQLTQSPSFLSASVGDRVTITCRASQGISSYLAWYQQDPGKAPKLLIYAASTLQSGVPSRFSGSGSGTEFTLTISSLQPEDFATYYCQQLDSYPPGYSFGQGTKLEIK
notes: IgG; V domains only
Take B9: the EC50 turned out to be 2.18 ng/mL.

B10: C977 (antibody, V domains shown)
VH: EVQLVESGGGLVQPGGSLRLSCAASGFTFSNYDMHWVRQVTGKGLEWVSLIGTAADAYYADSVKGRFTISRENAKNSLYLQINSLRAGDTAVYFCARGDSSGLYTFFDYWGQGTLVTVSS
VL: DIQMTQSPSSLSASVGDRVTITCRASQSVTRYLNWYQLKPGKAPKLLIYAASSLQSGVPSRFSGSGSGTDFTLTISSLQPEDFATYYCQQSYSTLGLTFGGGTKVEI
notes: IgG; V domains only
The molecule B10 gave a concentration giving a half-maximal response (EC50) of 2.13 ng/mL.

B11: C982 (antibody, V domains shown)
VH: EVQLVESGGGLVQPGGSLRLSCAASGFTFSNYDMHWVRQPTGGGLEWVSAIGTAGDTYYLASVKGRFTISRENAKNSLSLQMNSLRAGDTAVYYCVRGDTLVQGVIKAYYYYFMDVWGQGITVTVSS
VL: DIQMTQSPSSLSASVGDRVTITCRASQNISRYLNWYQQKPGKAPRLLIYAASTLQSGVPSRFSASGSGTDFTLTITNLQPEDFAVYYCQQTYVMPPYTLAQGTKLEIK
notes: IgG; V domains only
Turning to B11, a half-maximal response (EC50) required 2.56 ng/mL.

B12: C979 (antibody, V domains shown)
VH: QVQLVESGGGVVQPGRSLRLSCVASGFTFSNYGMHWVRQAPGKGLEWVAVILYDGSDKYYLDSVKGRFTISRDNSKNTLFLQLNSLRAEDTAVYYCAKEGNGYGYQYAGMDVWGQGTTVTVS
VL: QSALTQPASVSGSPGQSITISCTGTNSDVGGYDYVSWYQQHPGKAPKLIIFEVINRPSGVSNRFSGSKSGNTASLTISGLRAEDEADYYCCSYTTSTTRVFGGGTKLTVL
notes: IgG; V domains only
B12 returned an EC50 of 2.54 ng/mL.

B13: C983 (antibody, V domains shown)
VH: QVQLVESGGGVVRPGRSLRLSCAASGFTFSKYGMHWVRQAPGKGLECVASIAYDGSDDSYADSVKGRFIISRDNSKNTLYLQMNSLRAADTAVYYCAKVLGSYCSASSCHGQRPDYWGQGTLVTVSS
VL: DIQMTQSPSSLSAYVGDRVTITCQASQDISNHLNWYQQKPGKAPNLLIYDASNLETGVPSRFSGSGSGTDFSFTISSLQPEDIATYYCQQYDNVPPWTFGQGTKVEIK
notes: IgG; V domains only
Turning to B13, the EC50 is 2.11 ng/mL.

B14: C971 (antibody, V domains shown)
VH: EVQLVESGGGLVKPGGSLRLSCAASGFTFNNAWMTWVRQAPGKGLEWVGRIKSKTDGGTTDYGTPAKGRFTISRDDSKNTLYLQMKSLRTEDTAVYYCTTVDVQGIWELLENDAFDIWGQGTMVTVSS
VL: EIVLTQSPGTLSLSPGERATLSCRATQAISSTYLAWYQQKPGQAPRLLIYGAFSRAPGIPDRFSGSGSETDFTLTISRLEPEDFAVYYCQQSDRSPFTFGPGTKVDIK
notes: IgG; V domains only
B14 showed an EC50 of 2.21 ng/mL.

B15: C981 (antibody, V domains shown)
VH: EVQLVESGGGLVQPGGSLRLSCAASGFTFSNYDMHWVRQVTGNGLEWVAAIGTSGDTYYPDSVKGRFTISRENVKNSLFLQMNSLRAGDTAVYYCARGGSSSWLWYFDLWGRGTLV
VL: DIQMTQSPSSLSASVGDRVTITCRASQSISSHLNWYQQKPGKVPKLLIYAASTLQSGVPSRFSGSGSGTDFTLTISSLQPEDFATYYCQQSYSMPPVTFGQGTRLEIK
notes: IgG; V domains only
For the molecule B15, the concentration giving a half-maximal response (EC50) was found to be 2.12 ng/mL.

B16: C964 (antibody, V domains shown)
VH: EVQLVESGGGLVQPGRSLRLSCAASGFTFDDYGMHWVRQAPGKGLEWVSGISWNSGSIAYAEFVKGRFTISRDNAKNSLYLQMNSLRTEDTALYYCAKAVPTSCYVFCALDIWGQGTMVTVSS
VL: DIQMTQSPSSLSASVGDRVTITCRASQGISNYLAWYQQSPGKVPKLLIYAASTLQSGVPSRFSGSGSGTDFTLTISSLQPEDVATYYCQKYNSGPALTFGGGTKVEIK
notes: IgG; V domains only
In the case of B16, the EC50 was determined as 2.79 ng/mL.

B17: C965 (antibody, V domains shown)
VH: EVQLVESGGGLVKPGRSLRLSCSASGFTFGDYAMTWFRQAPGKGLQWVGFIRSKPFGGTTQYAASVKGRFTISRDDSNNVAYLQMNSLKTEDTGVYYCTRLRQVQGVPGYYFDQWGQGALVTVSS
VL: EIVMTQSPATLSVSPGERATLSCRASQSVSSNLAWYQQKPGQAPRLLIYGASIRATGIPARFSGSGSGTEFTLTISSLQSEDFVVYYCQEYDNWFAFGGGTKVEIK
notes: IgG; V domains only
B17 displayed an EC50 of 1.69 ng/mL.

B18: C963 (antibody, V domains shown)
VH: QVQLVQSGAEVKKPGSSVRVSCKASGGTFSSFTITWVRQAPGQGLEWMGRIIPNLNIPNYAQRFQGRITITAEKSTSTAYLELSSLRSEDTAVYYCARGVGYSGSGSNWYFDLWGRGTLVTVSS
VL: QSVLTQPPSVSGAPGQRVTISCTGSSSNIGAGYDVHWYQQLPGTAPKLLISGHINRPSGVPDRFSGSTSGTSASLAITGLQAEDEADYYCQSYDSSLSDSVFGGGTKLTV
notes: IgG; V domains only
Molecule B18 displayed a concentration giving a half-maximal response (EC50) of 2.96 ng/mL.

B19: C984 (antibody, V domains shown)
VH: QVQLVQSGTEVKKPGDSVQVSCKTSGYSFTGYYIHWVRQAPGQGLEWMGRINPNSGGTNYAQKFQGRVIMTRDTSITTAFMELTRLRYDDTAVYFCAREPIEGVIGGMIVNYYYMDVWGRGTTVTVSS
VL: QSALTQPASVSGSPGQSITISCTGTSSDVGGYYYVSWYQQHPGKAPKLMIYDVSSRPSGVSNRFSGSKSGNTASLTISGLQAEDEADYYCSSYTSSNTLVVFGGGTKLTVL
notes: IgG; V domains only
B19 came in with a concentration giving a half-maximal response (EC50) of 2.76 ng/mL.

B20: C985 (antibody, V domains shown)
VH: QVQLVQSGAEVKKPGASVKVSCKASGYIFTGYYMHWVRQAPGQGLEWMGRINPNSGGSRYAEKFQGRVTMTRDTSIITAFMELRGLKSDDTAVYYCAREPIEAVPAGIIVNYYYMDVWGNGTTVTVSS
VL: B19 VL with Y33N, S54T, N62D, N71T, Y93F, S96A, N97F
notes: IgG; V domains only
As for B20, the EC50 was 3.67 ng/mL.

B21: C958 (antibody, V domains shown)
VH: EVQLVQSGAEVKKPGDSLKISCKGSGYSFISHWIAWVRQKPGKGLEWMGIIHPGDSDTRYSPSIQGQVTISADRFITTAYLQWSSLQASDTAMYYCARRGSSWEIDHWGQGTLVTVSS
VL: QSVLTQPPSASGTPGQRVTISCSGSSSNIGSYTVNWYHQVPGTAPKVLIYGNTQRPSGVPDRFSGSKSGTSASLAISGLQSEDEGDYYCAAWDDSLDGWMFGGGTTLTVL
notes: IgG; V domains only
The molecule B21 yielded an EC50 of 4.02 ng/mL.
